Laboratory results published in patent publication US11046988B2, “Process for the modification of a glycoprotein using a β-(1,4)-N-acetylgalactosaminyl transferase or a mutant thereof” (Synaffix B.V., priority 2014, dated 2021).

Tested on: GlcNAc-Man5-GlcNAc-GlcNAc(Fuc)-substituted trastuzumab (formula 26)
Assay: Glycosyltransfer of GalNAz to GlcNAc-Man5-GlcNAc-GlcNAc(Fuc)-substituted trastuzumab, MS analysis
Type: biochemical
Conditions: UDP-GalNAz 0.5 mM, CeGalNAcT 0.1 mg/mL, 10 mM MnCl2, pH 8.0, 16 hours, 30° C.
Protocol: Trastuzumab transiently expressed in the presence of swainsonine as described in Example 18 (10 mg/mL) was incubated with neuraminidase (0.5 mU/mg IgG) from Vibrio cholerae (commercially available from Sigma-aldrich) in 100 mM sodium acetate pH 6.0 and 2 mM CaCl2 for 16 hrs, which led to complete removal of the sialic acid (two major heavy chain products of 50712 and 50874 Da which correspond to approximately 20 and 70% of the total heavy chain products). When the same reaction was performed in the presence of β(1,4)-galactosidase (3 mU/mg IgG) from Streptococcus pneumoniae (commercially available from Calbiochem), a single major heavy chain product was observed corresponding to trastuzumab with a GlcNAc-Man5-GlcNAc-GlcNAc(Fuc)-substituted heavy chain (c=d=0, 50712 Da, ±90% of total heavy chain product, and minor heavy chain products between 50700 and 50900 Da).
A solution of 50 μg (modified) IgG, 1 M Tris-HCl pH 8.0, 1 mM EDTA and 30 mM DTT with a total volume of approximately 70 μL was incubated for 20 minutes at 37° C. to reduce the disulfide bridges allowing to analyze both light and heavy chain. If present, azide-functionalities are reduced to amines under these conditions. […] The reduced IgG was analyzed by electrospray ionization time-of-flight (ESI-TOF) on a JEOL AccuTOF. […]

Substance: CeGalNAcT: truncated Caenorhabditis elegans β-(1,4)-GalNAcT, amino acids 30-383 of SEQ ID NO: 2 (SEQ ID NO: 6)
- conversion into GalNAz-GlcNAc-Man5-GlcNAc-GlcNAc(Fuc)-substituted trastuzumab: complete conversion
- major heavy chain product (GalNAz-GlcNAc-Man5-GlcNAc-GlcNAc(Fuc)-substituted): ~90 % of the total heavy chain products
